Tests used:
AncSZ = assay: phosphorylation enrichment, bacterial display (enrichment ratio); higher = better substrate or ligand; peptides without Tyr show the background
EPHB1 = EPHB1 (UniProt P54762); assay: as above
EPHB2 = EPHB2 (UniProt P29323); assay: as above
FGFR1 = FGFR1 (UniProt P11362); assay: as above
FGFR3 = FGFR3 (UniProt P22607); assay: as above
Fer (mouse) = assay: as above
Fes = Fes (UniProt P07332); assay: as above
Fyn = Fyn (UniProt P06241); assay: as above
Hck = Hck (UniProt P08631); assay: as above
Hck, sequence (P08631 whole entry, looked up): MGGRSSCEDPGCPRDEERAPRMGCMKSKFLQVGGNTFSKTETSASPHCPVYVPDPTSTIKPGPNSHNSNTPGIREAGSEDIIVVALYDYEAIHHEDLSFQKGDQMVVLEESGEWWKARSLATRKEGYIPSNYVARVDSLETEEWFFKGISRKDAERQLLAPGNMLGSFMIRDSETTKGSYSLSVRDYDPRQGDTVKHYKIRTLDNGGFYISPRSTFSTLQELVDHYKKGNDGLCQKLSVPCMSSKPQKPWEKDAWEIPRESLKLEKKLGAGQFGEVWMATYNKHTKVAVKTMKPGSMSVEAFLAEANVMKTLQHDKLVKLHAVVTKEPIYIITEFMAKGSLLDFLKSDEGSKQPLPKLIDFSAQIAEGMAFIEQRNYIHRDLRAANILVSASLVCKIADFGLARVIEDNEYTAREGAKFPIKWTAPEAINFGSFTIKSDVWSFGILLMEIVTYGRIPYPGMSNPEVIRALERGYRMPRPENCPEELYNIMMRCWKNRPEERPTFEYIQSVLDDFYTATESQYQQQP

Jak2 = Jak2 (UniProt O60674); assay: as above
MERTK = MERTK (UniProt Q12866); assay: as above
MERTK, sequence (Q12866 whole entry, looked up): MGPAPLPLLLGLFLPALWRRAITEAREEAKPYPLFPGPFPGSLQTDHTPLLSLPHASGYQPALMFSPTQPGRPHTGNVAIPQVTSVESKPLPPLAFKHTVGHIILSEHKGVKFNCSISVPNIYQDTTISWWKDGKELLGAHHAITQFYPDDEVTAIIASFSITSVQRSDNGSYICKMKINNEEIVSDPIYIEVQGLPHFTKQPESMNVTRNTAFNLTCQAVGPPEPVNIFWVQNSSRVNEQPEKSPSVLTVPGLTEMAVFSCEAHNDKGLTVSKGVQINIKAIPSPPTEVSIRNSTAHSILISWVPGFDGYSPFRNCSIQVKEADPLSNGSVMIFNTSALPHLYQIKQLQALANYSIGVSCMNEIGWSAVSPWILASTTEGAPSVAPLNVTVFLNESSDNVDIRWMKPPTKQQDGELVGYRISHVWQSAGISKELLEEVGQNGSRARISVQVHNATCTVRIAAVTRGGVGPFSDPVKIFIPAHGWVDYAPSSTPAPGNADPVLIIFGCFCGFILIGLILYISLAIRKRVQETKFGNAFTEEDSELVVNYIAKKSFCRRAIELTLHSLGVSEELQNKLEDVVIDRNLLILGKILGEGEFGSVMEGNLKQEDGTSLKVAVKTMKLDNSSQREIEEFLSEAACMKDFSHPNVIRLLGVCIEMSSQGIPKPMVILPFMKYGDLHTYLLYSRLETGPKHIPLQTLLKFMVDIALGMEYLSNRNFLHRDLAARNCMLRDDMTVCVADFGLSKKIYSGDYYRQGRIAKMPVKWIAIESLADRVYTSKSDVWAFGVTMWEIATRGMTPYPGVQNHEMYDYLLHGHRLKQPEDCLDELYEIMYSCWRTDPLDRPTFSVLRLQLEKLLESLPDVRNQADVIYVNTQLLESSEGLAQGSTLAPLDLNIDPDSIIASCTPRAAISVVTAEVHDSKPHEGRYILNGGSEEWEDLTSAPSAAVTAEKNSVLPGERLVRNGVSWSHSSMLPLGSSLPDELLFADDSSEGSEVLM

c-Abl (mouse) = assay: as above
c-Src = assay: as above
Grb2 SH2 = Grb2 SH2 (UniProt P62993); assay: SH2 binding enrichment of the phosphorylated peptide, bacterial display (enrichment ratio); higher = better substrate or ligand; peptides without Tyr show the background
SHP2-C SH2 = assay: as above
c-Src SH2 = assay: as above
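Wherever SH2 binding enrichment of the phosphorylated peptide, bacterial display is given: peptide library displayed on the E. coli surface as eCPX fusions, selected cells deep-sequenced, score is each peptide's frequency after selection divided by its frequency in the input.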
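Wherever phosphorylation enrichment, bacterial display is given: 11-residue human phosphosite peptides and single-mutation variants displayed on the E. coli surface, counted by deep sequencing, each peptide's frequency after selection divided by its frequency in the unselected input library; frequency after pTyr selection over input frequency; kinase dosed for 20-30% of maximal phosphorylation in three min.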

FGFR3, sequence (P22607 whole entry, looked up): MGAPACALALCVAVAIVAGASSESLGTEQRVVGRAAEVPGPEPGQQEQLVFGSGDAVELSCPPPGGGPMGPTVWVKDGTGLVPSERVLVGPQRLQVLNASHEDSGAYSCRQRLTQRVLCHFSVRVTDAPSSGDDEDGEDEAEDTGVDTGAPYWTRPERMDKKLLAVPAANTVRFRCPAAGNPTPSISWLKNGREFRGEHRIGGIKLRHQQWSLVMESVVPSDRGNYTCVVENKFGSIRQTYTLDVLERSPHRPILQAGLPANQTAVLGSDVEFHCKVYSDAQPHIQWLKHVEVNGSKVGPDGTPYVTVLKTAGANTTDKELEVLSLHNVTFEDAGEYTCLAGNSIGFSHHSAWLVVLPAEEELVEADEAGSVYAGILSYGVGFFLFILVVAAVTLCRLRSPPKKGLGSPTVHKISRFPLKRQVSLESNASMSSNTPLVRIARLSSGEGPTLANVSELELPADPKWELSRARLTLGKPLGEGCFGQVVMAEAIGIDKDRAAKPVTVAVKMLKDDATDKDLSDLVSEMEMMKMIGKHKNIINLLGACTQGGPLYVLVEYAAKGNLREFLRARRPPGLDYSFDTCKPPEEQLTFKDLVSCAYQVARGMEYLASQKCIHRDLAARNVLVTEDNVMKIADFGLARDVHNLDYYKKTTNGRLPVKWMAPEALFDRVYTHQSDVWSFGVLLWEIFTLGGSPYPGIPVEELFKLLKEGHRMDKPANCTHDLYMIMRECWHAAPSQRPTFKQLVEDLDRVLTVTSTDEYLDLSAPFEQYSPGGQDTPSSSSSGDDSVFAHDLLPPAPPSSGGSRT
EPHB1, sequence (P54762 whole entry, looked up): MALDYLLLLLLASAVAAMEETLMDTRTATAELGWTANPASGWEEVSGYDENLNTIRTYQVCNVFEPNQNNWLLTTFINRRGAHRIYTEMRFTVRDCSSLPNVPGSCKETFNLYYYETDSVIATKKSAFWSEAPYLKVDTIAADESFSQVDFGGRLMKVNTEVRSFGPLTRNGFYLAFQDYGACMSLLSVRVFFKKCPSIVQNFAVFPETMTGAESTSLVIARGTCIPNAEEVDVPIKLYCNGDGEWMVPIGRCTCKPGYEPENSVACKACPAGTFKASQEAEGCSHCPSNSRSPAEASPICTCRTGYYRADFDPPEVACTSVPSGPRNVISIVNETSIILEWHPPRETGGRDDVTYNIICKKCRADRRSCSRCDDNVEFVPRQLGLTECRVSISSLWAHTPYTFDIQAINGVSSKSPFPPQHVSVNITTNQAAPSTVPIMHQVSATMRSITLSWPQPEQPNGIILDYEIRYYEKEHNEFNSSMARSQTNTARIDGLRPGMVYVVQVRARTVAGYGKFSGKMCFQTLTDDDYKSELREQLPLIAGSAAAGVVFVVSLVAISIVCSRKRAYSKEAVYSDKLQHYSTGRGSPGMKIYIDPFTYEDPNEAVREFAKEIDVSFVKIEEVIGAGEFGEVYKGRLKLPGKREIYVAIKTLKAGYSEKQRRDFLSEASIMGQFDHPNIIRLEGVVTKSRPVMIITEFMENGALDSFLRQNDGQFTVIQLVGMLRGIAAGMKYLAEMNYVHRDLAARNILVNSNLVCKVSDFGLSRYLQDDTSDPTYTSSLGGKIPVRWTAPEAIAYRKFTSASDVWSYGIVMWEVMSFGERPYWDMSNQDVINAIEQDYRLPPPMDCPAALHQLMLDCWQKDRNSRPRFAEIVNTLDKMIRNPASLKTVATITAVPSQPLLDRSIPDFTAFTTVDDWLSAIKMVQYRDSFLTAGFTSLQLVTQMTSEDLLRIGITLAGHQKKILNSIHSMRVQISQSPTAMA
EPHB2, sequence (P29323 whole entry, looked up): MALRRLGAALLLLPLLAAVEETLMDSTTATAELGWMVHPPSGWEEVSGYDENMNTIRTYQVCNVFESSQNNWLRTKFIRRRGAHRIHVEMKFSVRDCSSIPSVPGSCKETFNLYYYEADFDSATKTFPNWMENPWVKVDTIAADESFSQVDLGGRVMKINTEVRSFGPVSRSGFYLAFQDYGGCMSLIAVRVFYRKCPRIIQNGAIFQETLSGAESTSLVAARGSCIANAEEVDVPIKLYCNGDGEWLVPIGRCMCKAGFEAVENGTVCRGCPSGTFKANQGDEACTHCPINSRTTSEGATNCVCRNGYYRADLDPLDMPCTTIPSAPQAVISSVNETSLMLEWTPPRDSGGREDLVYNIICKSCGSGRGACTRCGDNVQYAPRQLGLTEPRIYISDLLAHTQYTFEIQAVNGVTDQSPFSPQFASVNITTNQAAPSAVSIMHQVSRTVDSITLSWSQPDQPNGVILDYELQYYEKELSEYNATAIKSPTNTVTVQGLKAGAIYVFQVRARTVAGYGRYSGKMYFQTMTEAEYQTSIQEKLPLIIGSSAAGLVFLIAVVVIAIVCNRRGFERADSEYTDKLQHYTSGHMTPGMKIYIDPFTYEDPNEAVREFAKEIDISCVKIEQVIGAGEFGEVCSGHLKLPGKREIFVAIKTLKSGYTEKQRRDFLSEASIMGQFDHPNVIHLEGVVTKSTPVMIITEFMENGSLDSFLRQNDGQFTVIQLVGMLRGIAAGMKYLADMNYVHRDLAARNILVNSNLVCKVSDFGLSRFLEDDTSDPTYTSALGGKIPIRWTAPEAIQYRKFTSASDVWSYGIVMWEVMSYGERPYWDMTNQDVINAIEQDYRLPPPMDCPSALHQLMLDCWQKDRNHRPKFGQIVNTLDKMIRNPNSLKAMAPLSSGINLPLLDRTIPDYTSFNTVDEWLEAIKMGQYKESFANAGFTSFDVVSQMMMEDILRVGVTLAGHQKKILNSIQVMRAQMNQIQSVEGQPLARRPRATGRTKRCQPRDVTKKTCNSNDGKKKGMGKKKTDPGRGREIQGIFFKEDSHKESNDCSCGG
Fyn, sequence (P06241 whole entry, looked up): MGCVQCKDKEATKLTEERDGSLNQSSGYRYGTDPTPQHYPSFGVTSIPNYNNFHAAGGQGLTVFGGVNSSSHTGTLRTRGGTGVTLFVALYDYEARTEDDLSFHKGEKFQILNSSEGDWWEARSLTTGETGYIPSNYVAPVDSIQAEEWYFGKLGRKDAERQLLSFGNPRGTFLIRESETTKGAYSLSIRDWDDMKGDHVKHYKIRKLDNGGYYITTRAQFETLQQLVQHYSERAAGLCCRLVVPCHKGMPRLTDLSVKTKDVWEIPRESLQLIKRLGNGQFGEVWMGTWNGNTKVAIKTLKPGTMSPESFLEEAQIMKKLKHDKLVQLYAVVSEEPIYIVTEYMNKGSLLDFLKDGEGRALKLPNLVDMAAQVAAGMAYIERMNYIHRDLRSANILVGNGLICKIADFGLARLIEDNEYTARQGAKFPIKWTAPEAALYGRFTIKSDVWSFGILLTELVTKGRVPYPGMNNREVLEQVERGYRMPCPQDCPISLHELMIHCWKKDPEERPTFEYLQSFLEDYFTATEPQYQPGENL

Row | SH2 binding enrichment (Grb2 SH2) | SH2 binding enrichment (SHP2-C SH2) | SH2 binding enrichment (c-Src SH2) | Sequence | phosphorylation enrichment (AncSZ) | phosphorylation enrichment (EPHB1) | phosphorylation enrichment (EPHB2) | phosphorylation enrichment (FGFR1) | phosphorylation enrichment (FGFR3) | phosphorylation enrichment (Fer (mouse)) | phosphorylation enrichment (Fes) | phosphorylation enrichment (Fyn) | phosphorylation enrichment (Hck) | phosphorylation enrichment (Jak2) | phosphorylation enrichment (MERTK) | phosphorylation enrichment (c-Abl (mouse)) | phosphorylation enrichment (c-Src)
1 | 0.65 | 0.449 | 1.24 | LRYDSYSSYCN [SLC20A2_Y433] | 1.32 | 2.74 | 5.07 | 0.619 | 0.849 | 0.577 | 1.12 | 0.837 | 0.949 | 0.865 | 1.38 | 0.824 | 1.27
2 | 0.917 | 0.669 | 0.436 | NGLVAYKDGKL [PMM2_Y76] | 0.602 | 0.341 | 0.403 | 0.431 | 0.448 | 0.457 | 0.612 | 0.305 | 0.372 | 0.528 | 0.429 | 0.427 | 0.423
3 | 0.939 | 0.815 | 0.76 | STDDGCIDLQF [TMEM230_Y29_Y29C] | 1.14 | 0.492 | 0.636 | 0.613 | 0.797 | 0.55 | 1.13 | 0.56 | 0.665 | 0.979 | 0.646 | 0.668 | 0.503
4 | 2.08 | 0.784 | 1.06 | CPPELYALMSD [ZAP70_Y569] | 1.57 | 3.39 | 1.13 | 0.905 | 1 | 1.19 | 1.31 | 0.612 | 1.08 | 0.892 | 3.54 | 0.681 | 0.828
5 | 1.77 | 1.59 | 1.47 | IIRQLYLKWHP [SACS_Y4333_R4331Q] | 0.888 | 0.469 | 0.444 | 0.473 | 0.604 | 0.4 | 1.02 | 0.38 | 1.12 | 1.01 | 1.08 | 0.608 | 0.509
6 | 0.912 | 0.549 | 0.565 | PEVSGYCHCAD [TG_Y234] | 2.1 | 3.57 | 1.4 | 1.11 | 1.56 | 1.14 | 2.79 | 0.976 | 1.08 | 2.21 | 0.936 | 1.83 | 1.2
7 | 1.21 | 9.46 | 5.39 | HSPLRYTSILT [OR51B6_Y130_R125H] | 0.915 | 0.782 | 0.602 | 1.19 | 0.849 | 0.892 | 1.4 | 0.823 | 0.683 | 0.807 | 0.634 | 0.547 | 0.574
8 | 0.951 | 1.13 | 1.06 | CTTIHYNYMFN [TP53_Y234_C238F] | 1.14 | 0.672 | 0.641 | 0.657 | 0.812 | 0.757 | 1.21 | 0.555 | 0.498 | 1 | 0.681 | 0.926 | 0.522
9 | 0.835 | 0.512 | 0.533 | RNYGTYTAGLS [RHBDD1_Y264_D262G] | 0.781 | 0.804 | 3.23 | 0.546 | 0.533 | 0.519 | 0.748 | 2.18 | 2.76 | 0.74 | 0.55 | 0.629 | 1.94
10 | 0.917 | 0.688 | 0.586 | FDSPFYQDSLP [TSC1_Y508_R509Q] | 0.848 | 0.503 | 0.489 | 0.357 | 0.599 | 2.88 | 1.09 | 0.482 | 0.521 | 0.805 | 0.431 | 0.737 | 0.473
11 | 0.723 | 1.29 | 0.682 | LNEWHYGGLTG [PGAM2_Y92_R90W] | 0.74 | 0.444 | 0.452 | 0.58 | 0.891 | 0.636 | 1.12 | 0.662 | 0.738 | 0.84 | 0.365 | 0.626 | 0.52
12 | 1.01 | 0.736 | 0.71 | VNTMLYEKFTF [TEK_Y1108_T1106M_YF] | 1.29 | 6.33 | 4.34 | 0.621 | 0.697 | 13.7 | 1.22 | 5.93 | 6.73 | 0.917 | 8.45 | 2.38 | 6.07
13 | 0.921 | 1.92 | 2.84 | MGSYNYLGFPR [SPTLC2_Y178_A182P] | 0.806 | 5.53 | 2.77 | 2.29 | 1.48 | 0.59 | 0.748 | 0.511 | 1.39 | 3.81 | 6.35 | 1.04 | 0.735
14 | 1.22 | 1.51 | 1.01 | VASIFYTLVIP [OR8K3_Y277] | 1.83 | 0.978 | 0.769 | 1.72 | 1.63 | 2.79 | 1.49 | 0.502 | 0.661 | 1.45 | 5.43 | 0.882 | 0.945
15 | 0.828 | 0.659 | 3.48 | FTNRNYDLDFD [MYC_Y12_YF] | 1.36 | 0.751 | 0.587 | 0.561 | 0.696 | 0.543 | 1.42 | 0.5 | 0.634 | 1.22 | 0.494 | 1.01 | 0.633
16 | 0.825 | 0.783 | 0.538 | SVVVPNEPPEV [TP53_Y220_Y220N] | 1.03 | 0.645 | 0.665 | 0.63 | 0.81 | 0.691 | 1.43 | 0.539 | 0.581 | 1.05 | 0.439 | 0.711 | 0.517

Continued, sequence first:

Row | Sequence | SH2 binding enrichment (Grb2 SH2) | SH2 binding enrichment (SHP2-C SH2) | SH2 binding enrichment (c-Src SH2) | phosphorylation enrichment (AncSZ) | phosphorylation enrichment (EPHB1) | phosphorylation enrichment (EPHB2) | phosphorylation enrichment (FGFR1) | phosphorylation enrichment (FGFR3) | phosphorylation enrichment (Fer (mouse)) | phosphorylation enrichment (Fes) | phosphorylation enrichment (Fyn) | phosphorylation enrichment (Hck) | phosphorylation enrichment (Jak2) | phosphorylation enrichment (MERTK) | phosphorylation enrichment (c-Abl (mouse)) | phosphorylation enrichment (c-Src)
17 | CCNHPYRINGA [CHD7_Y1256_L1257R] | 0.861 | 0.537 | 0.51 | 0.505 | 0.38 | 0.46 | 0.575 | 0.564 | 0.454 | 0.621 | 0.542 | 0.464 | 0.396 | 0.404 | 0.434 | 0.64
18 | TGVRDYIHVVD [GALE_Y241] | 0.81 | 0.658 | 0.549 | 0.846 | 0.499 | 0.531 | 0.587 | 0.593 | 0.413 | 1.01 | 0.426 | 0.493 | 0.71 | 0.331 | 0.586 | 0.381
19 | GSRGKYFSGFR [ATM_Y332_S333F] | 0.963 | 0.833 | 0.544 | 0.547 | 0.425 | 0.399 | 0.415 | 0.412 | 0.325 | 0.736 | 0.386 | 0.351 | 0.885 | 0.481 | 0.657 | 0.616
20 | SGGSSYGSGGC [KRT1_Y532_G537C] | 0.756 | 0.536 | 0.538 | 0.681 | 0.558 | 0.596 | 0.589 | 0.667 | 0.53 | 0.932 | 0.465 | 0.493 | 0.677 | 0.431 | 0.697 | 0.502
21 | IDFARYWHGND [MMP11_Y162_D166N] | 0.807 | 0.708 | 0.525 | 0.918 | 0.556 | 0.486 | 0.508 | 0.551 | 0.423 | 0.835 | 0.431 | 0.479 | 0.564 | 0.372 | 0.504 | 0.345
22 | ISTAGYSIPEL [EDAR_Y406] | 0.796 | 0.893 | 7.33 | 0.807 | 0.525 | 0.464 | 0.416 | 0.697 | 0.436 | 0.92 | 0.397 | 0.534 | 0.745 | 0.713 | 1.46 | 0.457
23 | ELAKYYKLHHI [AK7_Y391_N389K] | 0.961 | 0.93 | 0.748 | 0.884 | 0.589 | 0.562 | 0.516 | 0.677 | 0.461 | 0.827 | 0.41 | 0.393 | 0.987 | 0.376 | 0.665 | 0.478
24 | CRPPFYHRNCM [HGD_Y334_F329C_YF] | 1.27 | 1.4 | 1.36 | 0.913 | 0.474 | 0.555 | 0.435 | 0.635 | 0.375 | 0.776 | 0.492 | 0.48 | 0.606 | 0.452 | 0.58 | 0.901
25 | LAVNPYGPPDP | 0.934 | 0.7 | 0.528 | 0.796 | 0.461 | 0.553 | 0.436 | 0.493 | 0.44 | 0.692 | 0.454 | 0.516 | 0.709 | 0.594 | 0.726 | 0.523
26 | KASIMYPSSNC [CXCL11_Y52_N55S] | 0.943 | 0.7 | 0.565 | 0.629 | 0.411 | 0.48 | 0.455 | 0.467 | 0.452 | 0.653 | 0.434 | 0.429 | 0.522 | 0.395 | 0.497 | 0.397
27 | LLANAYIFDVQ [L1CAM_Y418_V421D_YF] | 1.15 | 0.99 | 0.913 | 1.73 | 0.933 | 0.838 | 0.874 | 1.17 | 0.755 | 1.84 | 1.09 | 0.598 | 1.73 | 0.718 | 0.896 | 1.03
28 | LRYEVYGGENE [STOX1_Y610] | 0.677 | 0.56 | 1.64 | 1.33 | 0.765 | 0.729 | 0.631 | 0.692 | 0.623 | 1.25 | 0.615 | 0.828 | 1.09 | 0.499 | 0.775 | 0.77
29 | TSIGNYYKPWF [DHCR24_Y299_N294T] | 0.844 | 2.71 | 1.27 | 1 | 16.3 | 15.7 | 5.29 | 4.18 | 0.438 | 0.868 | 0.59 | 1.03 | 11.5 | 10.1 | 14.6 | 0.707
30 | DAAEDYAEGVC [DHODH_Y194_R199C] | 0.816 | 0.598 | 0.609 | 1.31 | 0.801 | 0.713 | 0.658 | 0.895 | 0.765 | 1.24 | 0.566 | 0.559 | 1.19 | 0.492 | 0.917 | 0.559
31 | GVMLLYYGRYN [ADGRD1_Y85_T82M] | 1.17 | 0.921 | 0.96 | 1.53 | 0.616 | 0.761 | 0.556 | 0.6 | 0.515 | 1.24 | 1.24 | 1.21 | 1.34 | 0.416 | 0.594 | 2.23
32 | VKKKLYEEIDQ [CYP17A1_Y329] | 0.758 | 0.412 | 8.78 | 0.924 | 0.535 | 0.541 | 0.444 | 0.601 | 0.372 | 0.98 | 0.373 | 0.493 | 0.764 | 0.347 | 0.66 | 0.361
33 | KVKPIYLHTQG [AR_Y916_F917L] | 1.71 | 1.84 | 1.65 | 0.687 | 0.496 | 0.457 | 0.441 | 0.612 | 0.438 | 0.728 | 0.405 | 0.39 | 0.61 | 0.54 | 0.736 | 0.402

— the supplement of paper PMC10065799, “High-throughput profiling of sequence recognition by tyrosine kinases and SH2 domains using bacterial peptide display” (eLife, 2023)
